Laboratory results: the DeepSol protein solubility set

experiment: soluble on expression in E. coli; label from the status in PepcDB or PDB records

| Sequence | soluble on expression in E. coli |
| --- | --- |
| MSLQENRLKYCIQRMATVFEVSLSGYYDWLKRGMSKRKQHHNRCELLVKSAHMDTQQSYGHERLHQHLTSQGHDISLYMVRQIKQEHGIYCKRHKRSKVTTDSNHNKPVYPNLLEQQFDVAAPNIAWVSDITYIWTNEGWVYLAAFKDLYSKEIVGYALNKRMTADLVCEALNNAIKYKRPARGLIVHSDRGSQYCSHQYRQIIDKYGFAGSMSRKGNCYDNAPIESFWGQLKNELIYHKVYETRDEAIKDVVRYIEIFYNRQRIQKGLGFKSPTQVFQDFYRQAAEGHHHHHH | not soluble |
| GAMDPMICLGLEGTAEKTGVGIVTSDGEVLFNKTIMYKPPKQGINPREAADHHAETFPKLIKEAFEVVDKNEIDLIAFSQGPGLGPSLRVTATVARTLSLTLKKPIIGVNHCIAHIEIGKLTTEAEDPLTLYVSGGNTQVIAYVSKKYRVFGETLDIAVGNCLDQFARYVNLPHPGGPYIEELARKGKKLVDLPYTVKGMDIAFSGLLTAAMRAYDAGERLEDICYSLQEYAFSMLTEITERALAHTNKGEVMLVGGVAANNRLREMLKAMCEGQNVDFYVPPKEFCGDNGAMIAWLGLLMHKNGRWMSLDETKIIPNYRTDMVEVNWIKEIKGKKRKIPEHLIGKGAEADIKRDSYLDFDVIIKERVKKGYRDERLDENIRKSRTAREARYLALVKDFGIPAPYIFDVDLDNKRIMMSYINGKLAKDVIEDNLDIAYKIGEIVGKLHKNDVIHNDLTTSNFIFDKDLYIIDFGLGKISNLDEDKAVDLIVFKKAVLSTHHEKFDEIWERFLEGYKSVYDRWEIILELMKDVERRARYVE | soluble |
| MGSDKIHHHHHHMGVKFTLMGTTAGLGVPAFHCNCIACREARADPFWARTRSGAVLETGKENILIDASPDLSKQLLRERIQSVDYLFVTHWHYDHFGGIGDLEYYVKLERKRPVALFLPPSAVDDFAKAYPFLEEVFVIEPWEFGKSYAFEGIELTVLPARHSIETGGILLAGAKRAAYFTDTSGLPAPTARQLQGVDTLICDATFNGANWFPHSHMNWQEAIALGESIRAQHTVLTHLAMHYSTPITAAQLQEKLKDYAQVSLAYDGMVLTI | not soluble |
| MIGFAYLRLQKPSVYVIASQHFDGSIAAGLFESFGFKNIRGSSKKGGVKVLIEGLKRLKEGCDVAITPDGPKGPRHSIADGVIALAQKSGVGISACRVVCKNAWRLNTWDQFEIPKPFSEVYYYMLESVIIPKEWELSRAKEYLKTRMDSVGFEEPQRGLGALEHHHHHH | soluble |
| MGHHHHHHSHLPTTNIGSFPQTTEIRHARASFKKGELSLADYEAAMKKEIEYVVRRQEELDLDVLVHGEAERNDMVEYFGELLDGFAFTKFGWVQSYGSRCVKPPVIYGDVTRPEPMTVRWSQYAQSLTNRVMKGMLTGPVTILQWSFVRNDIPRSTVCKQIGVALSDEVLDLEAAGIKVIQIDEPAIREGLPLKRADWDAYLQWAGEAFRLSSMGVQDDTQIHTHMCYSEFNDILPAIAALDADVITIETSRSDMELLTAFADFKYPNDIGPGVYDIHSPRVPTATEVEHLLRKALNVIPKERLWVNPDCGLKTRGWTETIDQLKVMVDVTKK | not soluble |
| MPRLDLCAKRTTDQCTSRVRLATRKGLTKLLLCSRESSIFKDEDIEQDDLRSSRTPWAALPPPPIKPIADSFRCDALVIGAGITGALVAERLTRQGRQVVIIDRELPSLGSTVASTAMLLWETDRPLFELAQLYNFEKAVRCYRASHHAARGLLALVTDHGIACQMRPRLSLYLAVDDSPKLVRNEYALRSRADLPTLFLDRVELLNRFGIARAGALLSRDAADADPVRLTRGLLDVSLQRGARLLKANAVAYDSAASTVTVGLENGLSIEARHVVLATGYVMPNIVGSTSNQPASSWAIATRRRPNALWPEQALIWEATRNYHYARTTPDGRVIFGGEDDDAIIDPEARAAATPAKVRALKERLKALWPRASTEVAFTWSGAFDTTRDGLPLIGAVPGYRNILAAFGYGGNGITFSFLAAELLGTLLSGGSSPLLDVLALDRDLPANDAPSDSQALEHHHHHH | soluble |
| MSLLNQKIQNPNPDELMIEVDLCYELDPYELKLDEMIEAEPEPEMIEGLPASDALTPADRYLELFEHVQSAKIFPDSKTFPDCAPKMDPLDILIRYRKVRRHRDFDLRKFVENHFWLPEVYSSEYVSDPQNSLKEHIDQLWPVLTREPQDHIPWSSLLALPQSYIVPGGRFSETYYWDSYFTMLGLAESGREDLLKCMADNFAWMIENYGHIPNGNRTYYLSRSQPPVFALMVELFEEDGVRGARRYLDHLKMEYAFWMDGAESLIPNQAYRHVVRMPDGSLLNRYWDDRDTPRDESWLEDVETAKHSGRPPNEVYRDLRAGAASGWDYSSRWLRDTGRLASIRTTQFIPIDLNAFLFKLESAIANISALKGEKETEALFRQKASARRDAVNRYLWDDENGIYRDYDWRREQLALFSAAAIVPLYVGMANHEQADRLANAVRSRLLTPGGILASEYETGEQWDKPNGWAPLQWMAIQGFKMYGDDLLGDEIARSWLKTVNQFYLEQHKLIEKYHIADGVPREGGGGEYPLQDGFGWTNGVVRRLIGLYGEPEGGSHHHHHH | soluble |
| MNNYSGDIVFMSGGNEEDQLAQCQAYVQRHNIQQLVKEAIVVLCIHKPDNPVLFLKDHFEKLNEQRAQEGGNPDAADDDDIIVEPPKRSGGRRTGISAEPIKEDDTEYKKVVIPKDDATRRSLESAMRKNLLFAHLEEDEQKTMYDAMFPVEKSAGETIIEQGEEGDNFYVIDKGTVDVYVNHEYVLTINEGGSFGELALIYGTPRAATVIAKTDVKLWAIDRLTYRRILMGSVTKKRKMYDEFLSKVQILADLDQWERANVADALERCDFEPGTHVVEQGQPGDEFFIILEGEANVLQKRSDDAPFDVVGHLGMSDYFGEIALLLDRPRAATVVAKTHLKCIKLDRNRFERVMGPVREILKRDVSNYNSYVKLMT | soluble |
| MGSDKIHHHHHHMSSNESQTLATISPTALSQLARYIKQWGQELGFAQVGITDTDLSEEEAKLQDWLDKGYHGEMGYMANHGMMRARPHELHQGTKRVVSLRMDYLPPSAGFATNLIDPTLGYISRYAGGRDYHKLMRQRIKKLGDKIEAYCQEQGFGATDSRPFVDSAPVMERPLAEKAGIGWTGKHSLILNHNAGSWFFLGELFINLPLPLDIPISDGCNTCVACIKSCPTGAIVEPYVVDGRRCISYLTIELQGAIPEEFRPLMGNRIYGCDDCQLVCPINAQAPLTQEHDFHIRQQILQPELLTLFNWSEKTFLSLTEGSAIRRIGHKRWLRNIAIALGNAPANPNIIEALSARKASDEVDDMVLEHINWALAQQQAKVQQQTKVQQQAKVQQAVQFEPARETPAQRKTARVVRSVEKGLPRDA | not soluble |
| MGSDKIHHHHHHMRNKIEKGVDLNLRQFIKSLGYIAGGTALLASTPWLSSCTPEKLKEIRNEKARIALIGTGSRGQYHIHNLKEIPHARIVAVCDNYAPNLQQAVELCPGAKAYTDYRKLLESADIDGVIISTPLNWHAPIVLDALAAGKHVFCEKAMARTLDECKAIYDAYQTTNQVLYFCMQRMYDEKYIKGMQMIHSGLIGDVVGMRCHWFRNADWRRPVPSPELEHQINWRLYKESSGGLMTELACHQLEVCNWAAKRMPVSIIGMGDIVYWKDGREVYDSVNVTYRYSDGTKIAYESLISNKFNGMEDQILGHKGTMEMAKGIYYLEEDHSTSGIRQLIGQVKDKVFAAIPTAGPSWRPETKMEYTPHFVIEGDINVNNGLSMIGADKDGSDIILSSFCQSCITGEKAQNVVEEAYCSTVLCLLGNQAMEEERHILFPDEYKIPYMKF | not soluble |
| MEWKNDVLRFSGFDYGVSKIRMLNEELHSECDQLSKSNESTSLKDITEEPKDEKLESIIETAKNKESEKEENSHVFNDCEFDAMTERKIENFYFRNVEQAEKKMKHLTTLKSKWSEPWQTGEEIVAKVYLKPKNHENPWKDGTFQEKEAVEMQKNGKKHGRCIIS | not soluble |
| MGSDKIHHHHHHMSVMFDPQAAIYPFPPKPTPLNDDEKQFYREKIKRLLKERNAVMVAHYYTDPEIQQLAEETGGCISDSLEMARFGTKHAASTLLVAGVRFMGETAKILSPEKTILMPTLAAECSLDLGCPIDEFSAFCDAHPDRTVVVYANTSAAVKARADWVVTSSIAVELIEHLDSLGEKIIWAPDRHLGNYVQKQTGADVLCWQGACIVHDEFKTQALTRLKKIYPDAALLVHPESPQSIVEMADAVGSTSQLIKAAKTLPHRQLIVATDRGIFYKMQQAVPEKELLEAPTAGEGATCRSCAHCPWMAMNGLKAIAEGLEQGGAAHEIQVDAALREGALLPLNRMLDFAATLRA | not soluble |
| MGSDKIHHHHHHKRQVSGDEAYLQASPLSELHAPAGMILPIQVGDYNIPVANSTGAVGKALDIRPPAQPLALVSGARTQFNGDTATLMVENGRSGSLWAQVTSILQAKNYVIAKRDDASQTLNTDWVEWNRLDEDQQYRGRYQISVKPQGYQQAVVVKLVNLEQAGKPVADPASLQRYSTAMLNVISEGLDMNATSAQNAAQRSAGATFDVQSAADDTGLPMLVVRAPFNLVWQRLPGALEKVGMKVTDSTRSQGSMALTYKPLSDSSWQELGARDPQLVSGDYKLQVGDLDNRSSLQFIDPKGHTLTQSQNDALVAVFQAAFNK | not soluble |
| MKKALQVAMFSLFTVIGFNAQANEHHHETMSEAQPQVISATGVVKGIDLESKKITIHHDPIAAVNWPEMTMRFTITPQTKMSEIKTGDKVAFNFVQQGNLSLLQDIKVSQ | soluble |
| MKKGINRVVLVGTGAVGCSYAYCMINQAVAEEFVLVDVNEAKAEGEAMDLSHAVPFAPAPTRVWKGSYEDCKDADLVVITAGLPQKPGETRLDLVEKNAKIFKQIVRSIMDSGFDGIFLIATNPVDILTYVTWKESGLPKERVIGSGTTLDSARFRYMLGEYFNIGPHNIHAYIIGEHGDTELPVWSHVSVGIQKLQTLLEKDNTYNQEDLDKIFINVRDAAYHIIERKGATYYGIGMSLLRVTKAILNDENSVLTVSAYLEGQYGQKDVYIGVPAVLNRGGVREILEVELSEDEELKFDHSVQVLKETMAPVL | not soluble |
| MALTATVRRAELQISDMDRGYYANHSLTLAQHPSETDERLMVRLLAFALFADDRLEFGRGLSNDDEPDLWRRDYTGDPDLWIDLGQPDESRVRKACNRSREAVVIGYGGQATETWWKKHANAMGRYRNLRVIELDSQATEALGALIQRGMRFDVIIQDGEVQMLADHGSVTLTPMVRQAPAE | soluble |
| GMAYEQFAYVYDELMQDVPYPEWVAWVLEQVEPGKRIADIGCGTGTATLLLADHYEVTGVDLSEEMLEIAQEKAMETNRHVDFWVQDMRELELPEPVDAITILCDSLNYLQTEADVKQTFDSAARLLTDGGKLLFDVHSPYKMETLFNGKTYATHAEQSSYIWFADPGEEPLSVVHELTFFIEGEDGRYDRVDETHHQRTYPPEQYITWLREAGFRVCAVTGDFKSDAPTETAERIFFVAEKI | soluble |
| MGINERLRHVIEAQKMTIKGFAETVDIPLRSVHNYLSGEREPSADALTKISNKLNINLNWLLLDQGEMYLNQSSDLTLNADEMNLLTQYRQTHDSGKRILQATSKIILDELK | not soluble |
| MERAHRIDLKLLRYFLAVAEELHFGRAAARLNMSQPPLSIHIKELEQQLGTLLFIRHSRSVALTHAGKVLMEESRRLLASANQALARVEQIGRGEAGRIELGVVGTALWGRMRPAMRHFLKANPNVEVLFREKSPGMQMALLERRELDAGIWRMAIEPAVGFTSIRLHESAFMVAVPEDHDLASRDSVPLAALRNEYFVTLPSVHSDWGFLQRVCQQAGFSPMIIREVVEPQTVLAMISMGIGITLMADGYAQMSWPGVVFRPLEERIPADLYIVYDQQQATPALEKLVAALTV | not soluble |
